Values belong to the molecule of their own block, whether it stands above or below them.
What was measured:
[1] = target: huCTLA4 (Homo sapiens, UniProt P16410); assay: Flow binding to CHO cells stably expressing CTLA4; parameters: huCTLA4 and huPD-L1, full-length mammalian surface expression constructs were generated; expressed in transfected cells; host or cells: CHO cells, lentiviral transduction, sorted to >98% purity; conditions: 33.3 nM; for CTLA4 MFI at 33.3 nM: CHO cells stably expressing CTLA4; for CTLA4 Fold change to WT CD80: relative to CD80 WT IgV-Fc
In short: (§1)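 Flow cytometry on transfected CHO cells or CD28+ Jurkat/IL2 reporter cells, blocked 20 min in PBS/1% BSA/0.1% azide. Fusion protein 45 min on ice; PE anti-human Fc 1:150, 30 min on ice; fixed in 2% formaldehyde. Read-out PE MFI, EC50 calculated.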

[2] = target: T1, CD28 (Homo sapiens, UniProt P10747); assay: Jurkat/IL2 + CHO/OKT3 +/- PD-L1 reporter assay: PD-L1-dependent CD28 costimulation; type: cell-based; parameters: host or cells: Jurkat cells expressing an IL-2-luciferase reporter; conditions: Jurkat/IL2 + CHO/OKT3/PD-L1; for Relative Luciferase Units (RLU), CD80 Cone 5.0 nM / Fold Increase over WT CD80-IgV-Fe: 5.0 nM
In short: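 Jurkat reporter cells (100,000/well) preincubated 15 min at room temperature with test protein, then cocultured 5 h at 37 °C with CHO aAPCs bearing anti-CD3 scFv (OKT3) with or without PD-L1. Luciferase luminescence (RLU) read after lysis-substrate addition.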

[3] = target: T1, CD28; assay: Flow binding to Jurkat/IL2 reporter cells (CD28); parameters: host or cells: Jurkat cells expressing an IL-2-luciferase reporter; conditions: 33.3 nM; for CD28 MFI at 33.3 nM: Jurkats (CD28); for CD28 Fold change to WT CD80: relative to CD80 WT IgV-Fc
In short: as §1

[4] = target: huPD-L1 (Homo sapiens, UniProt Q9NZQ7); assay: Flow binding to CHO cells stably expressing PD-L1; parameters: huCTLA4 and huPD-L1, full-length mammalian surface expression constructs were generated; expressed in transfected cells; host or cells: CHO cells, lentiviral transduction, sorted to >98% purity; conditions: Table E10; for PD-L1 MFI at 33.3 nM: CHO cells stably expressing PD-L1; for PD-L1 MFI at 33.3 nM / PD-L1 Fold change to WT CD80: 33.3 nM; for PD-L1 Fold change to WT CD80: relative to CD80 WT IgV-Fc; for Ratio of PDL1:CD28: binding to PD-L1 compared to binding to CD28
In short: as §1

huPD-L1, sequence (Q9NZQ7 19-290): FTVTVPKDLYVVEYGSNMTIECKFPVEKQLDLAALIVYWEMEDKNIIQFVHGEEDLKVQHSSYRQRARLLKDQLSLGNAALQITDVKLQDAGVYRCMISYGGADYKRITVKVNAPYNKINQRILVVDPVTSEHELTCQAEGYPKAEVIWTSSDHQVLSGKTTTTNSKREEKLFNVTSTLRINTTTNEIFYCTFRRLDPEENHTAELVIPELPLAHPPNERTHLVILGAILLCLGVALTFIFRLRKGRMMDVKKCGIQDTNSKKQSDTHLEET
huCTLA4, sequence (P16410 36-223): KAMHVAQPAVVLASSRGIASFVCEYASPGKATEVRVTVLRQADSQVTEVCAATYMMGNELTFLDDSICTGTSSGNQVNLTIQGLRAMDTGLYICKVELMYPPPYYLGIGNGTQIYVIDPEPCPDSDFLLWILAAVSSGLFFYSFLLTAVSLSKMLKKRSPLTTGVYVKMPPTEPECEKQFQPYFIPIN

B1: V22D/E24D/E35D/M47V/V68M (protein)
chain: VIHVTKEVKEVATLSCGHNVSDEDLAQTRIYWQKDKKMVLTMMSGDVNIWPEYKNRTIFDITNNLSIMILALRPSDEGTYECVVLKYEKDAFKREHLAEVTLSVKADFPTPSISDFETPTSNIRRIICSTSGGFPEPHLSWLENGEELNAINTTVSQDPETELYAVSSKLDFNMTTNHSFMCLIKYGHLRVNQTFNWNTTKQEHFPDN
modifications: CD80 v385 ECD
CTLA4 MFI at 33.3 nM ([1]; Table E11): 16899
Relative Luciferase Units (RLU), CD80 Cone 5.0 nM ([2]; Table E13): 1023 RLU
CD28 MFI at 33.3 nM ([3]; Table E11): 191

B3: E35D/M43I/D46E/A71G/L85M (protein)
chain: VIHVTKEVKEVATLSCGHNVSVEELAQTRIYWQKDKKMVLTMISGEMNIWPEYKNRTIFDITNNLSIVILGLRPSDEGTYECVVMKYEKDAFKREHLAEVTLSVKAD
CTLA4 MFI at 33.3 nM ([1]; Table E10): 26878
CTLA4 Fold change to WT CD80 ([1]; Table E10): 14.0
Fold Increase over WT CD80-IgV-Fe ([2]; Table E12): 3.7
Relative Luciferase Units (RLU), CD80 Cone 5.0 nM ([2]; Table E12): 1475 RLU
PD-L1 MFI at 33.3 nM [4]: 7138
PD-L1 Fold change to WT CD80 [4]: 101.5
Ratio of PDL1:CD28 [4]: 36
CD28 MFI at 33.3 nM ([3]; Table E10): 200
CD28 Fold change to WT CD80 ([3]; Table E10): 3.0

B4: E35D/M47V/K89N (protein)
chain: VIHVTKEVKEVATLSCGHNVSVEELAQTRIYWQKDKKMVLTMMSGDVNIWPEYKNRTIFDITNNLSIVILALRPSDEGTYECVVLKYENDAFKREHLAEVTLSVKAD
CTLA4 MFI at 33.3 nM ([1]; Table E19): 39282
Relative Luciferase Units (RLU), CD80 Conc 5.0 nM ([2]; Table E21): 668 RLU
CD28 MFI at 33.3 nM ([3]; Table E19): 507

B5: H18Y/A26E/A71G/D90G (protein)
chain: VIHVTKEVKEVATLSCGYNVSVEELEQTRIYWQKEKKMVLTMMSGDMNIWPEYKNRTIFDITNNLSIVILGLRPSDEGTYECVVLKYEKGAFKREHLAEVTLSVKAD
CTLA4 MFI at 33.3 nM ([1]; Table E20): 19878
Relative Luciferase Units (RLU), CD80 Conc 5.0 nM ([2]; Table E22): 933 RLU
CD28 MFI at 33.3 nM ([3]; Table E20): 2001

The remaining lines, values ahead:

CTLA4 MFI at 33.3 nM ([1]; Table E10): 28420
CTLA4 Fold change to WT CD80 ([1]; Table E10): 14.8
Fold Increase over WT CD80-IgV-Fe ([2]; Table E12): 4.0
Relative Luciferase Units (RLU), CD80 Cone 5.0 nM ([2]; Table E12): 1601 RLU
PD-L1 MFI at 33.3 nM [4]: 7328
PD-L1 Fold change to WT CD80 [4]: 104.2
Ratio of PDL1:CD28 [4]: 6
CD28 MFI at 33.3 nM ([3]; Table E10): 1325
CD28 Fold change to WT CD80 ([3]; Table E10): 20.1
B2: D46V/M47I/A71G (protein)
chain: VIHVTKEVKEVATLSCGHNVSVEELAQTRIYWQKEKKMVLTMMSGVINIWPEYKNRTIFDITNNLSIVILGLRPSDEGTYECVVLKYEKDAFKREHLAEVTLSVKAD

CTLA4 MFI at 33.3 nM ([1]; Table E19): 24787
Relative Luciferase Units (RLU), CD80 Conc 5.0 nM ([2]; Table E21): 862 RLU
CD28 MFI at 33.3 nM ([3]; Table E19): 1324
B6: M47V/V68M/K89N (protein)
chain: VIHVTKEVKEVATLSCGHNVSVEELAQTRIYWQKEKKMVLTMMSGDVNIWPEYKNRTIFDITNNLSIMILALRPSDEGTYECVVLKYENDAFKREHLAEVTLSVKAD

CTLA4 MFI at 33.3 nM ([1]; Table E19): 33583
Relative Luciferase Units (RLU), CD80 Conc 5.0 nM ([2]; Table E21): 721 RLU
CD28 MFI at 33.3 nM ([3]; Table E19): 642
B7: E35D/N48K/V68M (protein)
chain: VIHVTKEVKEVATLSCGHNVSVEELAQTRIYWQKDKKMVLTMMSGDMKIWPEYKNRTIFDITNNLSIMILALRPSDEGTYECVVLKYEKDAFKREHLAEVTLSVKAD

From patent publication US20220177587A1, “METHODS AND USES OF VARIANT CD80 FUSION PROTEINS AND RELATED CONSTRUCTS” (Alpine Immune Sciences, Inc., priority 2018, published 2022)
